The chains are these.
B1: HDV Ribozyme (parent)
chain: GGCCGGCAUGGUCCCAGCCUCCUCGCUGGCGCCGGCUGGGCAACAUUCCGAGGGGACCGUCCCCUCGGUAAUGGCGAAUGGGACCCA

Experimental findings from the RNAGym collection of RNA variant scans (doi:10.7554/elife.80360) are described below.

This data set covers variants of B1. The data set is described as follows: self-cleavage, relative activity (ratio to wild type); higher = more cleavage; co-transcriptional.
Turning to GGCCGGCAUGGUCCCAGCCUCCUCGCUGGCGCCGGCUGGGCAACAUUCUGAGGGGACCGUCCCCUCGGCAAUGGCGAAUGGGACCCA [C49U U69C], the self-cleavage stood at 0.831.

With GGCCGGCAUGGUCCCAGCCUCCACGCUGGCGCCGGCUGGGCAACAUUCCGAGGGGACCGUCCCCUCCGUAAUGGCGAAUGGGACCCA [U23A G67C], the self-cleavage turned out to be 1.22.

With GGCCGGCAUGGUCCCAGCCUCCUCGCUGGCGCCGGCUGGGCAACAUUCCGAGGGGACCGUCCCCUCUGUAAUGGCGAAUGGGAGCCA [G67U C84G], the self-cleavage amounted to 0.609.

For GGCCGGCAUGGUCCCAGCCUCCUCGGUGGCGCCGGCUGGGCAACAUUCCGAGGGGACCGUCCCCUCGGUAAUGGGGAAUGGGACCCA [C26G C75G], the self-cleavage worked out at 0.227.

Regarding GGCCGGCAUGGUCGCAGCCUCCUCGCUGGCGCCGGCUGGGCAACAUUCCGAGGGGACCGUCCCCUCGGUAAUGGUGAAUGGGACCCA [C14G C75U], the self-cleavage worked out at 0.155.

On to GGCCAGCAUGGUCCCAGCCUCCUCGCUGGCGCCGGCUGGGCAUCAUUCCGAGGGGACCGUCCCCUCGGUAAUGGCGAAUGGGACCCA [G5A A43U], for which the self-cleavage was 0.089.

Take GGCCGGCAUGGUCCCAGCCUCCUCGCUGCCGCCGGCUGGGCAACAUUCCGAGGGGACCGUCCCCUCGGUAAUGGCGAAUGGGACCCC [G29C A87C]: the self-cleavage came out at 0.0932.

For GGCCGGCAUGGUCCCAGCCUCCUCGCUGGCGCCGGCUGGACAACAUUCCGAGGGGACCGUCCCCUCGGUAAUGGCGAAUGGGACCCG [G40A A87G], the self-cleavage came out at 0.959.

GGCCGGCAUGGUCCCAGCCUCCUCGCUGGCGCCGGCUGGGCAACAAUCCGAGGGGACCGUCCCCUCGGUCAUGGCGAAUGGGACCCA [U46A A70C]: the self-cleavage was determined as 0.831.

For GGCCGGCAUGGUCCCAGCCUCCUCGCUGGCGCCGGCUGGGCAACAUUCCGAGGGGACCGUUCCCUCGGUAAUGGCGAAUCGGACCCA [C61U G80C], the self-cleavage stood at 0.115.

For the variant GGCCGGCAUGGUCCCAGCCUCCCCGCAGGCGCCGGCUGGGCAACAUUCCGAGGGGACCGUCCCCUCGGUAAUGGCGAAUGGGACCCA [U23C U27A], the self-cleavage turned out to be 0.898.

As for GGCCGGCAUGGUCCCAGCCUCCUUGCUGGCGCCGGCUGGGCAACAUUCCGAGGGGACCGUCCCCUCGGUAAUGACGAAUGGGACCCA [C24U G74A], the self-cleavage is 0.0639.

For GGCCGGCAUGGUCCCAGCCUCCUCGCUGGCGCCGGCUGGGCAACAUUCCGAGGGGACCAUCCCCUCGGUAAUGGCGAAUGGGACCUA [G59A C86U], the self-cleavage came out at 0.793.

For GGCCGGCGUGGUCCCAGCCUCCUCGCUGGCGCCGGCUGGGCAACAUUCCGCGGGGACCGUCCCCUCGGUAAUGGCGAAUGGGACCCA [A8G A51C], the self-cleavage amounted to 0.962.

For GGCCGGCAUGGUCCCAGCCUACUCGCUGGCGCCGGCUGGGCAACAUUCCGAGGGGACCGUCCCCUCGGUAAUGGCGGAUGGGACCCA [C21A A77G], the self-cleavage was 0.0678.

Turning to GGCCGGCAUGGUCCCAGCCUCCUCGCUGGCGCCGGCUGGGCAACAUUCCGAGGGGACCGUCCCUUCGGUAAUGGCGAAUGGGACCCG [C64U A87G], the self-cleavage amounted to 1.04.

As to GGCCGGCAUGGUCCCAGCCUACUCGCUGGCGCCGGCUGGGCAACAUUCCGAUGGGACCGUCCCCUCGGUAAUGGCGAAUGGGACCCA [C21A G52U], the self-cleavage turned out to be 0.107.

GGCCGGCGUGGUCCCAGCCUCCUCGCUGGCGCCGGCUGGGCAACAUUACGAGGGGACCGUCCCCUCGGUAAUGGCGAAUGGGACCCA [A8G C48A]: the self-cleavage stood at 1.07.

Regarding CGCCGGCAUGGUCCCAGCCUCCUCGCUGGCGCCGGCUGGGCAACAUUCCGAGGCGACCGUCCCCUCGGUAAUGGCGAAUGGGACCCA [G1C G54C], the self-cleavage was 0.26.

For the variant UGCCGGCAUGGUCCCCGCCUCCUCGCUGGCGCCGGCUGGGCAACAUUCCGAGGGGACCGUCCCCUCGGUAAUGGCGAAUGGGACCCA [G1U A16C], the self-cleavage came out at 0.277.

Take GGCCGGCAUGGUCCCAGCGUCCUGGCUGGCGCCGGCUGGGCAACAUUCCGAGGGGACCGUCCCCUCGGUAAUGGCGAAUGGGACCCA [C19G C24G]: the self-cleavage came out at 0.

For the variant GGCCGGCAUGGUCCCAGCCUCCUCGCUGGCGCCGGCUGGGCAACAUUCCGAGGGCACCGUCCCUUCGGUAAUGGCGAAUGGGACCCA [G55C C64U], the self-cleavage stood at 1.12.

As to GGCCGGCAUGGUCCCAGCCUCCUCACUGGCGCCGGCUGGGCAACAUUCCGAGGGGACCGUCCCCUCGGUAAUGACGAAUGGGACCCA [G25A G74A], the self-cleavage came to 0.0767.

With GGCCGGCAUGGUACCAGCCUCCUCGCUGGCGCCGGCUGGGCAACAUUCCGAGGGGACCGCCCCCUCGGUAAUGGCGAAUGGGACCCA [C13A U60C], the self-cleavage is 0.0573.

As for GGCCGGCAGGGUCCCAGCCUCCUCGCUAGCGCCGGCUGGGCAACAUUCCGAGGGGACCGUCCCCUCGGUAAUGGCGAAUGGGACCCA [U9G G28A], the self-cleavage stood at 0.0573.

On to GGCCGGCAUGGUCCCAGCCUCCUCGCUGGCGCCGGCUGGGCAACAUUCCGAGGGGAUCGUCGCCUCGGUAAUGGCGAAUGGGACCCA [C57U C62G], for which the self-cleavage came out at 1.25.

In the case of UGCCGGCAUGGUCCCAGCCUCCUCGCUGGCUCCGGCUGGGCAACAUUCCGAGGGGACCGUCCCCUCGGUAAUGGCGAAUGGGACCCA [G1U G31U], the self-cleavage was found to be 0.385.

As for GGCCGGCAUGGUCCCAGCCUCCUCGCUGGCGCCGGCUGGGCAACCUUCCGAGGGGACCGUCCCCUUGGUAAUGGCGAAUGGGACCCA [A45C C66U], the self-cleavage was 0.8.

GGCCGGCAUGGGCCCAGCCUCCUCGCAGGCGCCGGCUGGGCAACAUUCCGAGGGGACCGUCCCCUCGGUAAUGGCGAAUGGGACCCA [U12G U27A]: the self-cleavage is 0.831.

Take GGCCGGCAUGUUCCCAGCCUCCUCGCUGGCGCCGGCUGGGCAACAUUCCGAGGGCACCGUCCCCUCGGUAAUGGCGAAUGGGACCCA [G11U G55C]: the self-cleavage worked out at 0.35.

For the variant GGCCGGCAUGGUCCCUGCCUCCUCGCUGGCGCCGGCUGGGCAACAUUCGGAGGGGACCGUCCCCUCGGUAAUGGCGAAUGGGACCCA [A16U C49G], the self-cleavage was found to be 0.91.

Take GGCCGGCAUGGUCCCAGCCCCCUCGCUGGCGCCGGCUGGGCAACAUUCCGAGGGGACCGUCCCCUCGGUAAUGGCGAAUGGGACCCU [U20C A87U]: the self-cleavage was 0.189.
